Experimental findings from patent US20150291952, “RNA APTAMER ISOLATION VIA DUAL-CYCLE (RAPID) SELECTION” (CORNELL UNIVERSITY, published 2015) are described below.

In data set [1] the target is T1, CHK2 (UniProt O96017 O96017:1-543). Put plainly: EMSA; F-EMSA, Hill fit; 25 mM Tris pH 8.0, 10 mM NaCl, 25 mM KCl, 5 mM MgCl2, 10 ug/ml yeast tRNA, room temp; binding to contaminant not ruled out. Conditions: tags: hexahistidine; expressed in E. coli BL21(DE3)-RIPL, Ni-NTA, ~90-95% pure; label: 3'-fluorescein (fluorescein 5-thiosemicarbazide). The procedure: (§1) The RNA samples were 3′-end labelled with fluorescein 5-thiosemicarbazide (Invitrogen) as described previously (Pagano et al. 2007). 50 μL binding reactions were prepared with 2 nM fluorescently-labelled RNA and decreasing amounts of protein (2000 to 0 nM) in binding buffer containing 0.01% IGEPAL CA630, 10 μg/ml yeast tRNA, and 3 U of SUPERase•In RNase Inhibitor. Reactions were prepared in black 96-well half area microplates (Corning) and incubated at room temperature for 2 hours. The plates were scanned on a Synergy H1 microplate reader (BioTek) using the Ex: 485/20 Em: 528/20 filter set to determine the Fluorescence Polarization (FP). The polarization “P” is determined from the total parallel and perpendicular polarized fluorescence according to:
(§2) In order to confirm that the two methods had independently enriched the same aptamer, we tested the unambiguous top-ranked SELEX/RAPID candidate for CHK2 binding, hereafter referred to as C6M1. […] The calculated fraction bound curve for the gel shift is also shown in FIG. 6B as the solid line (left axis). […] In order to ensure that the observed binding was not a gel artefact, we also performed a Fluorescence Polarization (FP) assay. […]
A general note: A gel shift assay detects complexes by their altered migration in electrophoresis.

Data set [2] concerns the target T1, CHK2. Briefly: FP; same samples as F-EMSA, Hill fit; 5 mM MgCl2, yeast tRNA, room temp. Conditions: tags: hexahistidine; expressed in E. coli BL21(DE3)-RIPL, Ni-NTA, ~90-95% pure; label: 3'-fluorescein (fluorescein 5-thiosemicarbazide). As to the method:
as §1, §2

Usually Kd stands for the constant that tells how readily two partners part at equilibrium.

T1 sequence (O96017 whole entry, one chain of several): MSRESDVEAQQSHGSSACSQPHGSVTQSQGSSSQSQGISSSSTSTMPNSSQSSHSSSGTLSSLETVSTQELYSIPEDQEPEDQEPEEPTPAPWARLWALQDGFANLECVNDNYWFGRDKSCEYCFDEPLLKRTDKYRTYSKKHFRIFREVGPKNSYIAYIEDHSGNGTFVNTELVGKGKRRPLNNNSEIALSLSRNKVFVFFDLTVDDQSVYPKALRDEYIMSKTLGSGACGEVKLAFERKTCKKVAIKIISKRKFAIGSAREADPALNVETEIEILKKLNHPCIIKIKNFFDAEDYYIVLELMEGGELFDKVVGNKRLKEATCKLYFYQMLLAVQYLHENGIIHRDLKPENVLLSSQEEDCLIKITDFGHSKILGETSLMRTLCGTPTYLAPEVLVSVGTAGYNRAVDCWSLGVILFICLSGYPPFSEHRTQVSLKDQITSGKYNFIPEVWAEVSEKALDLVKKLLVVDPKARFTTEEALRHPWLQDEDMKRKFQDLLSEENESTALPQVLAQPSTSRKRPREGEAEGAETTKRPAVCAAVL

B1: C6M1 (ssRNA)
RNA: GGGAAUGGAUCCACAUCUACGAAUUCGAUCGGUUCCAACGCUCUGUCGCCUAAGUGAACAGAUGAAGAAAAAAUAGCCCAAUAAGAGGCAACAAUCUUUCACUGCAGACUUGACGAAGCUU
modifications: RNA transcript; SEQ:21 is the random region, assayed RNA also carries both library constant regions (reverse complement of the SEQ:22 flanks) [positions count without the 26-nt 5-prime fixed region]
In the case of B1, the Kd with CHK2 [1] is 180 nM; with CHK2 [2] it was 299 nM.
